According to paper PMC9482650, “Quantitative fragmentomics allow affinity mapping of interactomes” (Nature Communications, 2022):

T1: DLG3_2, Q92796
T1 sequence (Q92796 221-321, limits assumed, looked up): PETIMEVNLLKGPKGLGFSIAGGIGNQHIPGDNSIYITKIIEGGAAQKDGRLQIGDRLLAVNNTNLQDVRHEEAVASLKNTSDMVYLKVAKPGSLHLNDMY

T2: PDZRN3_1, Q9UPQ7
T2 sequence (Q9UPQ7 244-349, limits assumed, looked up): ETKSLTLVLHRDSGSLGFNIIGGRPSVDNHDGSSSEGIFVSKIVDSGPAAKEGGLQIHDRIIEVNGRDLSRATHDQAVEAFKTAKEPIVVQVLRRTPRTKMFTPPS

T3: LIN7B, Q9HAP6
T3 sequence (Q9HAP6 88-185, limits assumed, looked up): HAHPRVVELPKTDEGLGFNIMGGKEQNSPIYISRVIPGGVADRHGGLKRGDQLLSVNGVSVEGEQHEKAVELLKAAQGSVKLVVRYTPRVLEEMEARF

T4: DLG3_1, Q92796
T4 sequence (Q92796 125-227, limits assumed, looked up): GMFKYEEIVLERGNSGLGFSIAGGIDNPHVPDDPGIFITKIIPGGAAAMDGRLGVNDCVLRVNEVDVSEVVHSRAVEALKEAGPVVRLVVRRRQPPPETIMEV

T5: SIPA1L2, Q9P2F8
T5 sequence (Q9P2F8 945-1036, limits assumed, looked up): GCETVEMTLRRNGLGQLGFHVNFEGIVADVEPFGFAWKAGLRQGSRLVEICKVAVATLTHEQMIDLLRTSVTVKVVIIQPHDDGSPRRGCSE

T6: NHERF3_3, Q5T2W1
T6 sequence (Q5T2W1 238-333, limits assumed, looked up): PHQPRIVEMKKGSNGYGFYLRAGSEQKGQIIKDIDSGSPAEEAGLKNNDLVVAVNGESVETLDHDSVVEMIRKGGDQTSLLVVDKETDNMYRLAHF

T7: DFNB31_1, Q9P202
T7 sequence (Q9P202 135-233, limits assumed, looked up): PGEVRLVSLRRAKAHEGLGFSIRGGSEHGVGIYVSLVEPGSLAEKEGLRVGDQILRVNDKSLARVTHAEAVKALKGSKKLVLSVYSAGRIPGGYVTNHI

T8: MPDZ_10, O75970
T8 sequence (O75970 1624-1722, limits assumed, looked up): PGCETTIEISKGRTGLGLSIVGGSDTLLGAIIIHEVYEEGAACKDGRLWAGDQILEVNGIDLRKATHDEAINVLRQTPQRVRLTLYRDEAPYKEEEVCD

T9: MPDZ_5, O75970
T9 sequence (O75970 695-796, limits assumed, looked up): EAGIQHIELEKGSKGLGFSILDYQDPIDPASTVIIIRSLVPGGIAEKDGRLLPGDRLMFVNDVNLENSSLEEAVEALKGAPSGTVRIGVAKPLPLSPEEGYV

T10: MPDZ_12, O75970
T10 sequence (O75970 1857-1958, limits assumed, looked up): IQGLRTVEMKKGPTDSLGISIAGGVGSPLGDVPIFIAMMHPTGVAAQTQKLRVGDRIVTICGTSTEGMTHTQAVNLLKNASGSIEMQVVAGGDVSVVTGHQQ

T11: SNTG2, Q9NY99
T11 sequence (Q9NY99 68-166, limits assumed, looked up): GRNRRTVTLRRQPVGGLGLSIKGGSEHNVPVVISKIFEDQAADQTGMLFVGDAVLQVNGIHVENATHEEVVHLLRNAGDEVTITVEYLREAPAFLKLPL

T12: RAPGEF6, Q8TEU7
T12 sequence (Q8TEU7 525-625, limits assumed, looked up): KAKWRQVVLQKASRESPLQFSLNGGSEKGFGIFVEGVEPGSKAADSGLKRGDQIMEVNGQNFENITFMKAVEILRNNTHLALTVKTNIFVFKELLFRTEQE


What follows are binders tested against T1, DLG3_2, Q92796 (assay: holdup assay). Details: plain residues with an end cap or a label only (N-terminal biotin on a linker: ado-ado).
Design: key: below the threshold = too weak to quantify, mostly under pKd 3.1 to 4

Binder	pKd
EPQYQPGENL [SRC, P12931]	below the threshold
DGVNEKVSCV [HTR2A, P28223]	4.82
RSSGGDDFWF [KCNV1, Q6PIU1]	4.06

Each binder was assayed against Inadl_3, Q8NI35 (assay: holdup assay). Details: plain residues with an end cap or a label only (N-terminal biotin on a linker: ado-ado).
Design: key: below the threshold = too weak to quantify, mostly under pKd 3.1 to 4

Chain of Inadl_3, Q8NI35 (Q8NI35 359-469): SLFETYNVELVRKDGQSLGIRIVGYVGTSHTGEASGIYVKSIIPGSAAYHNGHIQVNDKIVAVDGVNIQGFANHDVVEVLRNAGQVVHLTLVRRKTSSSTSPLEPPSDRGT

Binder	pKd
EPQYQPGENL [SRC, P12931]	below the threshold
DGVNEKVSCV [HTR2A, P28223]	below the threshold
RSSGGDDFWF [KCNV1, Q6PIU1]	3.59

These binders were tested against Inadl_5, Q8NI35 (assay: holdup assay). Details: plain residues with an end cap or a label only (N-terminal biotin on a linker: ado-ado).
Design: key: below the threshold = too weak to quantify, mostly under pKd 3.1 to 4

Chain of Inadl_5, Q8NI35 (Q8NI35 673-780): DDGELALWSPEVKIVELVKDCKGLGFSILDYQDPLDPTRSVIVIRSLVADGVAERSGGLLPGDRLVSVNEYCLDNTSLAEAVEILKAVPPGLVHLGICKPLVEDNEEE

Binder	pKd
EPQYQPGENL [SRC, P12931]	below the threshold
DGVNEKVSCV [HTR2A, P28223]	below the threshold
RSSGGDDFWF [KCNV1, Q6PIU1]	below the threshold

These binders were tested against T2, PDZRN3_1, Q9UPQ7 (assay: holdup assay). Details: plain residues with an end cap or a label only (N-terminal biotin on a linker: ado-ado).
Design: key: below the threshold = too weak to quantify, mostly under pKd 3.1 to 4

Binder	pKd
EPQYQPGENL [SRC, P12931]	below the threshold
DGVNEKVSCV [HTR2A, P28223]	below the threshold
RSSGGDDFWF [KCNV1, Q6PIU1]	below the threshold

What follows are binders tested against LDB3, O75112 (assay: holdup assay). Details: plain residues with an end cap or a label only (N-terminal biotin on a linker: ado-ado).
Design: key: below the threshold = too weak to quantify, mostly under pKd 3.1 to 4

Chain of LDB3, O75112 (O75112 1-94): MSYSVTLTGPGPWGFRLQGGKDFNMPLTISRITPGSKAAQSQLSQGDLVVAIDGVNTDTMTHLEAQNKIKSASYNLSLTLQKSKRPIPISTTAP

Binder	pKd
EPQYQPGENL [SRC, P12931]	below the threshold
DGVNEKVSCV [HTR2A, P28223]	below the threshold
RSSGGDDFWF [KCNV1, Q6PIU1]	below the threshold

Each binder was assayed against T3, LIN7B, Q9HAP6 (assay: holdup assay). Details: plain residues with an end cap or a label only (N-terminal biotin on a linker: ado-ado).
Design: key: below the threshold = too weak to quantify, mostly under pKd 3.1 to 4

Binder	pKd
EPQYQPGENL [SRC, P12931]	below the threshold
DGVNEKVSCV [HTR2A, P28223]	3.79
RSSGGDDFWF [KCNV1, Q6PIU1]	3.7

The binders below were run against T4, DLG3_1, Q92796 (assay: holdup assay). Details: plain residues with an end cap or a label only (N-terminal biotin on a linker: ado-ado).
Design: key: below the threshold = too weak to quantify, mostly under pKd 3.1 to 4

Binder	pKd
EPQYQPGENL [SRC, P12931]	below the threshold
DGVNEKVSCV [HTR2A, P28223]	below the threshold
RSSGGDDFWF [KCNV1, Q6PIU1]	below the threshold

Each binder was assayed against DLG1_3, Q12959 (assay: holdup assay). Details: plain residues with an end cap or a label only (N-terminal biotin on a linker: ado-ado).
Design: key: below the threshold = too weak to quantify, mostly under pKd 3.1 to 4

Chain of DLG1_3, Q12959 (Q12959 457-571): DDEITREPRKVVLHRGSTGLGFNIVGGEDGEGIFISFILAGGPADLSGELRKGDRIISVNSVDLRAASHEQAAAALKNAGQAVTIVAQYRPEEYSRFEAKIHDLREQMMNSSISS

Binder	pKd
EPQYQPGENL [SRC, P12931]	below the threshold
DGVNEKVSCV [HTR2A, P28223]	below the threshold
RSSGGDDFWF [KCNV1, Q6PIU1]	3.57

Each binder was assayed against NHERF4_2, Q86UT5 (assay: holdup assay). Details: plain residues with an end cap or a label only (N-terminal biotin on a linker: ado-ado).
Design: key: below the threshold = too weak to quantify, mostly under pKd 3.1 to 4

Chain of NHERF4_2, Q86UT5 (Q86UT5 220-308): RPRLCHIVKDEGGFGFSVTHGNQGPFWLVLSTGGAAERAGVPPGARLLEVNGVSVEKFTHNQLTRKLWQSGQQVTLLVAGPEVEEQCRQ

Binder	pKd
EPQYQPGENL [SRC, P12931]	below the threshold
DGVNEKVSCV [HTR2A, P28223]	below the threshold
RSSGGDDFWF [KCNV1, Q6PIU1]	below the threshold

These binders were tested against T5, SIPA1L2, Q9P2F8 (assay: holdup assay). Details: plain residues with an end cap or a label only (N-terminal biotin on a linker: ado-ado).
Design: key: below the threshold = too weak to quantify, mostly under pKd 3.1 to 4

Binder	pKd
EPQYQPGENL [SRC, P12931]	below the threshold
DGVNEKVSCV [HTR2A, P28223]	below the threshold
RSSGGDDFWF [KCNV1, Q6PIU1]	below the threshold

What follows are binders tested against SCRIB_1, Q14160 (assay: holdup assay). Details: plain residues with an end cap or a label only (N-terminal biotin on a linker: ado-ado).
Design: key: below the threshold = too weak to quantify, mostly under pKd 3.1 to 4

Chain of SCRIB_1, Q14160 (Q14160 718-814): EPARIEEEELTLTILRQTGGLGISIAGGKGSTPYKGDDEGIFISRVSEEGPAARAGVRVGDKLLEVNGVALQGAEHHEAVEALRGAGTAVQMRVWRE

Binder	pKd
EPQYQPGENL [SRC, P12931]	3.49
DGVNEKVSCV [HTR2A, P28223]	below the threshold
RSSGGDDFWF [KCNV1, Q6PIU1]	below the threshold

These binders were tested against T6, NHERF3_3, Q5T2W1 (assay: holdup assay). Details: plain residues with an end cap or a label only (N-terminal biotin on a linker: ado-ado).
Design: key: below the threshold = too weak to quantify, mostly under pKd 3.1 to 4

Binder	pKd
EPQYQPGENL [SRC, P12931]	below the threshold
DGVNEKVSCV [HTR2A, P28223]	below the threshold
RSSGGDDFWF [KCNV1, Q6PIU1]	below the threshold

The binders below were run against GRID2IP_1, A4D2P6 (assay: holdup assay). Details: plain residues with an end cap or a label only (N-terminal biotin on a linker: ado-ado).
Design: key: below the threshold = too weak to quantify, mostly under pKd 3.1 to 4

Chain of GRID2IP_1, A4D2P6 (A4D2P6 1-87): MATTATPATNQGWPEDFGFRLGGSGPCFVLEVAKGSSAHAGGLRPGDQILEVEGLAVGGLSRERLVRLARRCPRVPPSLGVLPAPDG

Binder	pKd
EPQYQPGENL [SRC, P12931]	below the threshold
DGVNEKVSCV [HTR2A, P28223]	below the threshold
RSSGGDDFWF [KCNV1, Q6PIU1]	below the threshold

Each binder was assayed against T7, DFNB31_1, Q9P202 (assay: holdup assay). Details: plain residues with an end cap or a label only (N-terminal biotin on a linker: ado-ado).
Design: key: below the threshold = too weak to quantify, mostly under pKd 3.1 to 4

Binder	pKd
EPQYQPGENL [SRC, P12931]	below the threshold
DGVNEKVSCV [HTR2A, P28223]	below the threshold
RSSGGDDFWF [KCNV1, Q6PIU1]	below the threshold

Each binder was assayed against TJP1_3, Q07157 (assay: holdup assay). Details: plain residues with an end cap or a label only (N-terminal biotin on a linker: ado-ado).
Design: key: below the threshold = too weak to quantify, mostly under pKd 3.1 to 4

Chain of TJP1_3, Q07157 (Q07157 416-512): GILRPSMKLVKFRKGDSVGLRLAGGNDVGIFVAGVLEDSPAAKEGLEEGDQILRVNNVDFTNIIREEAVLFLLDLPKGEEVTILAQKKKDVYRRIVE

Binder	pKd
EPQYQPGENL [SRC, P12931]	below the threshold
DGVNEKVSCV [HTR2A, P28223]	below the threshold
RSSGGDDFWF [KCNV1, Q6PIU1]	below the threshold

Each binder was assayed against T8, MPDZ_10, O75970 (assay: holdup assay). Details: plain residues with an end cap or a label only (N-terminal biotin on a linker: ado-ado).
Design: key: below the threshold = too weak to quantify, mostly under pKd 3.1 to 4

Binder	pKd
EPQYQPGENL [SRC, P12931]	below the threshold
DGVNEKVSCV [HTR2A, P28223]	4.19
RSSGGDDFWF [KCNV1, Q6PIU1]	below the threshold

The binders below were run against FRMPD2_3, Q68DX3 (assay: holdup assay). Details: plain residues with an end cap or a label only (N-terminal biotin on a linker: ado-ado).
Design: key: below the threshold = too weak to quantify, mostly under pKd 3.1 to 4

Chain of FRMPD2_3, Q68DX3 (Q68DX3 1073-1166): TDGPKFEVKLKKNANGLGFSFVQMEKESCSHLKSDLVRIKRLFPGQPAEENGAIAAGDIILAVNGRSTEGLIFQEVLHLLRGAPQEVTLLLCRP

Binder	pKd
EPQYQPGENL [SRC, P12931]	below the threshold
DGVNEKVSCV [HTR2A, P28223]	3.53
RSSGGDDFWF [KCNV1, Q6PIU1]	below the threshold

Each binder was assayed against T9, MPDZ_5, O75970 (assay: holdup assay). Details: plain residues with an end cap or a label only (N-terminal biotin on a linker: ado-ado).
Design: key: below the threshold = too weak to quantify, mostly under pKd 3.1 to 4

Binder	pKd
EPQYQPGENL [SRC, P12931]	below the threshold
DGVNEKVSCV [HTR2A, P28223]	below the threshold
RSSGGDDFWF [KCNV1, Q6PIU1]	below the threshold

These binders were tested against AHNAK1, Q09666 (assay: holdup assay). Details: plain residues with an end cap or a label only (N-terminal biotin on a linker: ado-ado).
Design: key: below the threshold = too weak to quantify, mostly under pKd 3.1 to 4

Chain of AHNAK1, Q09666 (Q09666 4-100): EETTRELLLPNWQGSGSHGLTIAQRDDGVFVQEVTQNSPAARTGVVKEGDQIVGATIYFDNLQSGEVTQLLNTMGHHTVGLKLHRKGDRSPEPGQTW

Binder	pKd
EPQYQPGENL [SRC, P12931]	below the threshold
DGVNEKVSCV [HTR2A, P28223]	below the threshold
RSSGGDDFWF [KCNV1, Q6PIU1]	below the threshold

The binders below were run against T10, MPDZ_12, O75970 (assay: holdup assay). Details: plain residues with an end cap or a label only (N-terminal biotin on a linker: ado-ado).
Design: key: below the threshold = too weak to quantify, mostly under pKd 3.1 to 4

Binder	pKd
EPQYQPGENL [SRC, P12931]	below the threshold
DGVNEKVSCV [HTR2A, P28223]	below the threshold
RSSGGDDFWF [KCNV1, Q6PIU1]	below the threshold

What follows are binders tested against NHERF4_4, Q86UT5 (assay: holdup assay). Details: plain residues with an end cap or a label only (N-terminal biotin on a linker: ado-ado).
Design: key: below the threshold = too weak to quantify, mostly under pKd 3.1 to 4

Chain of NHERF4_4, Q86UT5 (Q86UT5 464-550): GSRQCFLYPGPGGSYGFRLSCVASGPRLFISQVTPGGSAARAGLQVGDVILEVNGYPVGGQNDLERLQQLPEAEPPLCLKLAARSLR

Binder	pKd
EPQYQPGENL [SRC, P12931]	below the threshold
DGVNEKVSCV [HTR2A, P28223]	below the threshold
RSSGGDDFWF [KCNV1, Q6PIU1]	4.43

What follows are binders tested against T11, SNTG2, Q9NY99 (assay: holdup assay). Details: plain residues with an end cap or a label only (N-terminal biotin on a linker: ado-ado).
Design: key: below the threshold = too weak to quantify, mostly under pKd 3.1 to 4

Binder	pKd
EPQYQPGENL [SRC, P12931]	below the threshold
DGVNEKVSCV [HTR2A, P28223]	3.69
RSSGGDDFWF [KCNV1, Q6PIU1]	below the threshold

What follows are binders tested against SNX27, Q96L92 (assay: holdup assay). Details: plain residues with an end cap or a label only (N-terminal biotin on a linker: ado-ado).
Design: key: below the threshold = too weak to quantify, mostly under pKd 3.1 to 4

Binder	pKd
EPQYQPGENL [SRC, P12931]	3.79
DGVNEKVSCV [HTR2A, P28223]	5.15
RSSGGDDFWF [KCNV1, Q6PIU1]	4.15

These binders were tested against T12, RAPGEF6, Q8TEU7 (assay: holdup assay). Details: plain residues with an end cap or a label only (N-terminal biotin on a linker: ado-ado).
Design: key: below the threshold = too weak to quantify, mostly under pKd 3.1 to 4

Binder	pKd
EPQYQPGENL [SRC, P12931]	below the threshold
DGVNEKVSCV [HTR2A, P28223]	below the threshold
RSSGGDDFWF [KCNV1, Q6PIU1]	below the threshold
